{"source": "patent US20200223933A1", "about": "(APTEVO RESERCH AND DEVELOPMENT, published 2020)", "molecules": {"B1": {"name": "ALG.APV-210 (bispecific antibody)", "chain": "EVQLLESGGGLVQPGGSLRLSCAASGFTFSHGSMYWVRQAPGKGLEWVSSISSGSGSTYYADSVKGRFTISHDNSKNTLYLQMNSLRAEDTAVYYCARSSYYGSYYSIDYWGQGTLVTVSSGGGGSGGGGSGGGGSGGGGSDIQMTQSPSSLSASVGDRVTITCRASQSISSYLNWYQQKPGKAPKLLIYAASSLQSGVPSRFSGSGSGTDFTLTISSLQPEDFATYYCQQYYDNLPTFGQGTKLEIKEPKSSDKTHTCPPCPAPEAAGAPSVFLFPPKPKDTLMISRTPEVTCVVVDVSHEDPEVKFNWYVDGVEVHNAKTKPREEQYNSTYRVVSVLTVLHQDWLNGKEYKCAVSNKALPAPIEKTISKAKGQPREPQVYTLPPSRDELTKNQVSLTCLVKGFYPSDIAVEWESNGQPENNYKTTPPVLDSDGSFFLYSKLTVDKSRWQQGNVFSCSVMHEALHNHYTQKSLSLSPGSGGGGSGGGGSGGGGSPSEVQLLESGGGLVQPGGSLRLSCAASGFTFSSYAMSWVRQAPGKCLEWVSAISGSGGSTYYADSVKGRFTISRDNSKNTLYLQMNSLRAEDTAVYYCARYYGGYYSAWMDYWGQGTLVTVSSGGGGSGGGGSGGGGSGGGGSDIQMTQSPSSLSASVGDRVTITCRASQSISSFLNWYQQKPGKAPKLLIYAASSLQSGVPSRFSGSGSGTDFTLTISSLQPEDSATYYCQQTYGYLHTFGCGTKLEIKR"}, "B2": {"name": "biotinylated ALG.APV-210 (bispecific antibody)", "chain": "B1 chain", "modifications": "biotinylated (sites not given)", "notes": "also called ALG.APV-210 (biotinylated for FACS detection)"}}, "key": {"[1]": {"target": "some of the FcγR expressing cell lines", "assay": "flow cytometry on CHO cells stably expressing FcγR, anti-human IgG secondary (FIG. 30B)"}, "human CD137 on cells [2]": {"target": "T1, human CD137 on cells (human, UniProt Q07011 24-255)", "T1 sequence (Q07011 24-255 limits assumed)": "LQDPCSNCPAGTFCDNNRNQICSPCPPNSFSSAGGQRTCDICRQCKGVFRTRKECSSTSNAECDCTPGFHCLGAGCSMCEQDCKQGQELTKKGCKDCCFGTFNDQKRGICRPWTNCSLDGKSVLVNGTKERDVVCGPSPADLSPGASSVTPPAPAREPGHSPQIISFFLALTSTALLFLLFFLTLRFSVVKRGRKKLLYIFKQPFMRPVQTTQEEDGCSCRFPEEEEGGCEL", "assay": "cell-based or functional assay"}, "human CD137 on cells [3]": {"target": "T1, human CD137 on cells", "assay": "cell-based or functional assay", "remark": "listed apart in the source"}, "human CD137 on cells [4]": {"target": "T1, human CD137 on cells", "assay": "flow cytometry, CD8 T cells gated from CD3-stimulated human PBMC, exp 1, n=3 donors", "protocol": "(§1) FACS staining and analysis of CD8 T cells: Following 48 h of incubation with or without CD3, human and cynomolgus PBMC were harvested, pooled, recounted and diluted in FACS buffer (PBS +0.5% BSA, 0.05% NaN₃) to a concentration of 5×10⁶ cells/mL. 50 μL (0.25×10⁶ cells) of cell solution was added to a 96-well FACS staining plate (Falcon #351190). Following 10 min of Fc-blocking in RT using Beriglobin (hIgG, 200 μg/mL), cells were washed in FACS buffer and then incubated for 1 h in 4° C. with 100 μL of the biotinylated ALG.APV-210 or negative control. The antibodies were added in a serial dilution starting either at 5 μg/mL titrating down in a 12 step 1/3 dilution down to 0.0003 μg/mL (exp 1) or 1 μg/mL titrating down in a 12 step 1/2 dilution down to 0.0005 μg/mL (exp 2). […] Cells were analysed for ALG.APV-210 binding using flow cytometry by gating on viable, single cells expressing CD3 and CD8. MFI values (FMO subtracted) from 2 independent experiments as well as normalized pooled data from 2 experiments and EC₅₀-values were determined and plotted using GraphPad Prism 7, non-linear regression log (agonist) vs. normalized response—variable slope, n=6 donors/group."}, "[5]": {"target": "T2, cynomolgus CD137 on cells (cynomolgus macaque, UniProt A9YYE7 24-254)", "T2 construct": "whole, on cells; also called cynomolgus macaque CD137; cynomolgus 4-1BB", "T2 sequence (A9YYE7 entry or part of it)": "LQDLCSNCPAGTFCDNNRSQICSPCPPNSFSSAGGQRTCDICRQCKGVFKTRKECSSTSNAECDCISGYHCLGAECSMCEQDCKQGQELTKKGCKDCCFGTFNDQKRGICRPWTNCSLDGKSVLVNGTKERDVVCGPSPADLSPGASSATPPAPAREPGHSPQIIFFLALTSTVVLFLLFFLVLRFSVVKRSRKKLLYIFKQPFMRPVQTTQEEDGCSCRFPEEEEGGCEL", "assay": "flow cytometry, CD8 T cells gated from CD3-stimulated cynomolgus PBMC, exp 1, n=3 donors", "protocol": "(§2) Isolation and stimulation of cynomolgus PBMC: Cynomolgus PBMC were isolated from 20 mL of cynomolgus monkey blood from 3 different donors, obtained from Silabe, France by density gradient centrifugation using Lympholyte-mammal (Cedarlane labs) according to manufacturer's instructions. Non-tissue treated 96 well plates were pre-coated overnight at 4° C. with 3 μg/mL α-monkey CD3, clone FN-18 (Invitrogen #APS0301). The cynomolgus PBMC were then stimulated identically as the human PBMC described above\n(§3) FACS staining and analysis of CD8 T cells: Following 48 h of incubation with or without CD3, human and cynomolgus PBMC were harvested, pooled, recounted and diluted in FACS buffer (PBS +0.5% BSA, 0.05% NaN₃) to a concentration of 5×10⁶ cells/mL. 50 μL (0.25×10⁶ cells) of cell solution was added to a 96-well FACS staining plate (Falcon #351190). […] Cells were analysed for ALG.APV-210 binding using flow cytometry by gating on viable, single cells expressing CD3 and CD8. MFI values (FMO subtracted) from 2 independent experiments as well as normalized pooled data from 2 experiments and EC₅₀-values were determined and plotted using GraphPad Prism 7, non-linear regression log (agonist) vs. normalized response—variable slope, n=6 donors/group."}, "[6]": {"target": "T2, cynomolgus CD137 on cells", "assay": "flow cytometry, CD8 T cells gated from CD3-stimulated cynomolgus PBMC, exp 2, n=3 donors", "protocol": "as §2, §3"}, "human CD137 on cells [7]": {"target": "T1, human CD137 on cells", "assay": "flow cytometry, CD8 T cells gated from CD3-stimulated human PBMC, exp 2, n=3 donors", "protocol": "as §1"}, "human CD137 on cells [8]": {"target": "T1, human CD137 on cells", "assay": "flow cytometry, normalized % positive cells of CD8 T cells from CD3-stimulated human PBMC, pooled data of 2 exp, n=6 donors", "protocol": "as §1"}, "[9]": {"target": "T2, cynomolgus CD137 on cells", "assay": "flow cytometry, % positive cells of CD8 T cells gated from CD3-stimulated cynomolgus PBMC, exp 1, n=3 donors", "protocol": "as §2, §3"}, "human CD137 on cells [10]": {"target": "T1, human CD137 on cells", "assay": "flow cytometry, % positive cells of CD8 T cells gated from CD3-stimulated human PBMC, exp 1, n=3 donors", "protocol": "as §1"}}, "data": [{"molecule": "control human IgG1 molecule (antibody)", "values": [{"measurement": "concentration at which significant binding was observed", "setting": "[1]", "value": 4, "unit": "nM"}]}, {"molecule": "B1", "values": [{"measurement": "EC50 (nM), IFNγ release of human CD8 T cells with CT26-h5T4^high cells", "setting": "human CD137 on cells [2]", "value": 0.41, "unit": "nM"}, {"measurement": "EC50 (nM), IFNγ release of human CD8 T cells with CT26-h5T4^low cells", "setting": "human CD137 on cells [2]", "value": 0.24, "unit": "nM"}, {"measurement": "maximal IFNγ release with CT26-h5T4^low cells relative to CT26-h5T4^high cells", "setting": "human CD137 on cells [3]", "value": 82, "unit": "%"}, {"measurement": "maximal IFNγ release with CT26-wt cells relative to CT26-h5T4^high cells", "setting": "human CD137 on cells [3]", "value": 7, "unit": "%"}]}, {"molecule": "B2", "values": [{"measurement": "EC50 (read off the curve)", "setting": "human CD137 on cells [4]", "value": "~0.3", "unit": "nM"}, {"measurement": "EC50 (read off the curve)", "setting": "[5]", "value": "~0.3", "unit": "nM"}, {"measurement": "EC50 (read off the curve)", "setting": "[6]", "value": "~0.2", "unit": "nM"}, {"measurement": "EC50 (read off the curve)", "setting": "human CD137 on cells [7]", "value": "~0.2", "unit": "nM"}, {"measurement": "EC50", "setting": "human CD137 on cells [8]", "value": 0.027, "unit": "nM"}, {"measurement": "EC50 (read off the curve)", "setting": "[9]", "value": "~0.02", "unit": "nM"}, {"measurement": "EC50 (read off the curve)", "setting": "human CD137 on cells [10]", "value": "~0.03", "unit": "nM"}]}]}
